Measurements reported in patent publication US20120053118A1.
Read-outs that look alike come from different tables or passages of the source. Bridge positions count the residues as written; N and C are the ends. Ends that are not written are not given here.

How the values were obtained:
[1] = biological target: amylin receptors (membrane-bound, rat basal forebrain membranes containing the nucleus accumbens and surrounding regions) (rat); experiment: competition with 125I Bolton-Hunter rat amylin on rat basal forebrain membranes
[2] = biological target: amylin receptors (membrane-bound, rat basal forebrain membranes containing the nucleus accumbens and surrounding regions) (rat); experiment: as above; remark: listed apart in the source

Molecule | IC50 [1] [nM] | IC50 [2] [nM]
human amylin (hAmylin) (ligand) | 50000 | –
KCNTATCATQRLANFLVHSSNNFGPILPSTNVGSNTY [^25, 28Pro-h-Amylin] | – | 0.026
CNTATCATQRLANFLVHSSNNFGPILPSTNVGSNTY [des-^1Lys^25, 28Pro-h-Amylin] | – | 0.085
KCNTATCATQRLANFLVRSSNNFGPILPSTNVGSNTY [^18Arg^25, 28Pro-h-Amylin] | – | 0.032
CNTATCATQRLANFLVRSSNNFGPILPSTNVGSNTY [des-^1Lys^18Arg^25, 28Pro-h-Amylin] | – | 0.082
KCNTATCATQRLANFLVRSSNNFGPILPPTNVGSNTY [^18Arg^25, 28, 29Pro-h-Amylin] | – | 0.021
CNTATCATQRLANFLVRSSNNFGPILPPTNVGSNTY [des-^1Lys^18Arg^25, 28, 29Pro-h-Amylin] | – | 0.021
KCNTATCATQRLANFLVHSSNNFGPILPPTNVGSNTY (disulfide 2-7; not fully specified (C-terminus)) [^25, 28, 29Pro-h-Amylin] | – | 0.01
CNTATCATQRLANFLVHSSNNFGPILPPTNVGSNTY [des-^1Lys^25, 28, 29Pro-h-Amylin] | – | 0.014
KCNTATCATQRLANFLVHSSNNFGPVLPPTNVGSNTY [^25Pro^26Val^28, 29Pro-h-Amylin] | – | 0.018
KDNTATKATQRLANFLVHSSNNFGAILSSTNVGSNTY (lactam 2-7; not fully specified (C-terminus)) [^2, 7Cyclo-[^2Asp,^7Lys]-h-Amylin] | – | 0.31
